Assay results reported in patent US20080044360A1 (COLLAGEN MEDICAL, published 2008).
Bridge positions count the residues as written; N and C are the ends. Square brackets hold non-standard residues; d marks the D form. Ends that are not written are not given here.

The binders below were run against T1, human collagen type I, acid soluble, extracted from placenta (Sigma C7774) (human, UniProt P02452 162-1218; P08123 80-1119) (assay: dried collagen assay).
T1 construct: tissue extract, gelled and dried in wells; also called dried human collagen; h-Collagen
Description: An additional 90 μL is reserved in a HPLC glass vial as a measure of the total concentration.

T1 sequence (P02452 162-1218 limits assumed, chain 1 of 2): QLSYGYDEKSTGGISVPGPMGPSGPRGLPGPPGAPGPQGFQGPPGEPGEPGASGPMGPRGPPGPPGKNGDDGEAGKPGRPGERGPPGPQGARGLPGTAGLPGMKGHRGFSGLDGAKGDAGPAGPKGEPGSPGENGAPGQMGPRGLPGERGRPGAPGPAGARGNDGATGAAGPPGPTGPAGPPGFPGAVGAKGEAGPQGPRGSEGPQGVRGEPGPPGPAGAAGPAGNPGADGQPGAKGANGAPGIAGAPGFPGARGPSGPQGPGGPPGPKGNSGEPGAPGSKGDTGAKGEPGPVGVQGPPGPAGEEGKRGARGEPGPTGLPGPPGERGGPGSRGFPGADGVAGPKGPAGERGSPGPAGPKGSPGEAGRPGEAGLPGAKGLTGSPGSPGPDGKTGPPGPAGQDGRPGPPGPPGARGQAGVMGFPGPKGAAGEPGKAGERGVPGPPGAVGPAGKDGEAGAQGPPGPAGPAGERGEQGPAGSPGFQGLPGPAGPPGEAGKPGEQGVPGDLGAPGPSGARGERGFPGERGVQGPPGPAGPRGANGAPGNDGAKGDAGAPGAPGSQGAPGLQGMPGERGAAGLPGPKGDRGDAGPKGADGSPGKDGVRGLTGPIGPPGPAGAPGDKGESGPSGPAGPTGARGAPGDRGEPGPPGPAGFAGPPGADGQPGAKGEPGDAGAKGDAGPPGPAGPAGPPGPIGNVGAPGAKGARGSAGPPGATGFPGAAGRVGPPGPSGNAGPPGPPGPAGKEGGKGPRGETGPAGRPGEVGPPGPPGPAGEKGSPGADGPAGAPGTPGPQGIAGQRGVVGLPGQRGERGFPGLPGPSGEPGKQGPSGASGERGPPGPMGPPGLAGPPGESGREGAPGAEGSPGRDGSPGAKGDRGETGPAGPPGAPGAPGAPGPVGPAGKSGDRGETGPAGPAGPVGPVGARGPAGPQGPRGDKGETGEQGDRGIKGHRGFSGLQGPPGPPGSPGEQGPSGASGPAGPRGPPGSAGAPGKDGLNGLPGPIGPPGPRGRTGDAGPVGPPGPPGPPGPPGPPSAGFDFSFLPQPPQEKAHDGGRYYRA
T1 sequence (P08123 80-1119 limits assumed, chain 2 of 2): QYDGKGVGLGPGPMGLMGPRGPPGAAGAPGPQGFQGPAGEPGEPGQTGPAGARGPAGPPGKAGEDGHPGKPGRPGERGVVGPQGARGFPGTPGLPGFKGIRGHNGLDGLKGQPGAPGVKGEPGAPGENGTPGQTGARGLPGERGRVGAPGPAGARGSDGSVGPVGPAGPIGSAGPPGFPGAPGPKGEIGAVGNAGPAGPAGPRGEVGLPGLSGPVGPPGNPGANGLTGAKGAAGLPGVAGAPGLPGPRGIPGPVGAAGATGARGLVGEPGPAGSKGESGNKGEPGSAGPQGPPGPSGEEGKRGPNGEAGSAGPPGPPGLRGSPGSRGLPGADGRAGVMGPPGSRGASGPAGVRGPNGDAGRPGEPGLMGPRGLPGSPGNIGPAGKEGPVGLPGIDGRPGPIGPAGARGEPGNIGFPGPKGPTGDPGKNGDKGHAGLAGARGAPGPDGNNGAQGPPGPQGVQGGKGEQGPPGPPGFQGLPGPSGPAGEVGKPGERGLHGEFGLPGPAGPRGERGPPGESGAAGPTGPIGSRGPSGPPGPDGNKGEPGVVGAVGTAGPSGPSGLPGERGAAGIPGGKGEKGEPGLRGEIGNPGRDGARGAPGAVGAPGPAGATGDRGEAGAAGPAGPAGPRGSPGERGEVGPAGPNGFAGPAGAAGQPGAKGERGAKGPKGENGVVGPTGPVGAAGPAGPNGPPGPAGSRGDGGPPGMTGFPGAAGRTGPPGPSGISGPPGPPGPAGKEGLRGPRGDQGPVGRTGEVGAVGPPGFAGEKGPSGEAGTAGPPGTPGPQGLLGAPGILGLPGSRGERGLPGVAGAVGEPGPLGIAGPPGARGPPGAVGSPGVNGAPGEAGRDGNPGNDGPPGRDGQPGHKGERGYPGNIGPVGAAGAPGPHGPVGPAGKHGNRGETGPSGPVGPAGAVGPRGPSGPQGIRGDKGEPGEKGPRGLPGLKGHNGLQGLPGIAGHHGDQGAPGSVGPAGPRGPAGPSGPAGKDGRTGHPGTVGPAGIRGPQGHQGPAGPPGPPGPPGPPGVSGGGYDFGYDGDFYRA

% bound | Binder
9% | LTVCHPPYYGRCNFV (disulfide 4-12 (inferred), cyclic, disulfide) [SEQ ID NO 10]
7% | PMICHAPYVGKCNFL (disulfide 4-12 (inferred), cyclic, disulfide) [SEQ ID NO 12]
57% | DWTCVGDHKTWKCNFH (disulfide 4-13 (inferred), cyclic, disulfide) [SEQ ID NO 21]
20% | TWQCSGNQKWSCEWF (disulfide 4-12 (inferred), cyclic, disulfide) [SEQ ID NO 6]
64% | PWYCSGDHLDWKCIYQ (disulfide 4-13 (inferred), cyclic, disulfide) [SEQ ID NO 20]
16% | GWDCQGTDNIWECVRK (disulfide 4-13 (inferred), cyclic, disulfide) [SEQ ID NO 30]
55% | DWECHGNEFEWNCLMR (disulfide 4-13 (inferred), cyclic, disulfide) [SEQ ID NO 22]
12% | AWTCVGGEKTWGCVWN (disulfide 4-13 (inferred), cyclic, disulfide) [SEQ ID NO 33]
43% | EWLCVGDSLKWYCKHS (disulfide 4-13 (inferred), cyclic, disulfide) [SEQ ID NO 24]
11% | MWDCTGNSAEWRCEMQ (disulfide 4-13 (inferred), cyclic, disulfide) [SEQ ID NO 34]
9% | GWQCFGASDWHCTWV (disulfide 4-12 (inferred), cyclic, disulfide) [SEQ ID NO 8]
16% | DWICHGDFDTWKCDLQ (disulfide 4-13 (inferred), cyclic, disulfide) [SEQ ID NO 29]
7% | TWNCYGVTEWHCYMI (disulfide 4-12 (inferred), cyclic, disulfide) [SEQ ID NO 9]
9% | PLVCHPPYSGSCSLH (disulfide 4-12 (inferred), cyclic, disulfide) [SEQ ID NO 11]
40% | TWRCDQFKGKWVCRGG (disulfide 4-13 (inferred), cyclic, disulfide) [SEQ ID NO 42]
30% | PWQCYSDKTSWVCNLY (disulfide 4-13 (inferred), cyclic, disulfide) [SEQ ID NO 43]
8% | YWVCGGDHQSWHCSHP (disulfide 4-13 (inferred), cyclic, disulfide) [SEQ ID NO 35]
2% | YPACDDQTHLWNLACWPA (disulfide 4-15 (inferred), cyclic, disulfide) [SEQ ID NO 103]
25% | WRCDGDAHDWHCDWF (disulfide 3-12 (inferred), cyclic, disulfide) [SEQ ID NO 26]
12% | NWVCSGDHADWSCALI (disulfide 4-13 (inferred), cyclic, disulfide) [SEQ ID NO 32]

% bound | Binder
28% | GWNCYEYDSQWICDHL (disulfide 4-13 (inferred), cyclic, disulfide) [SEQ ID NO 44]
9% | YHACYQAGCYIW (disulfide 4-9 (inferred), cyclic, disulfide) [SEQ ID NO 107]
25% | EWQCTQYANQWNCKYN (disulfide 4-13 (inferred), cyclic, disulfide) [SEQ ID NO 45]
15% | GWVCGGDHTTWECHLQ (disulfide 4-13 (inferred), cyclic, disulfide) [SEQ ID NO 31]
11% | NWYCTGTKSWECFWK (disulfide 4-12 (inferred), cyclic, disulfide) [SEQ ID NO 7]
44% | AWDCSGNIPTWYCRRL (disulfide 4-13 (inferred), cyclic, disulfide) [SEQ ID NO 23]
39% | IWLCTGGAATWNCKFD (disulfide 4-13 (inferred), cyclic, disulfide) [SEQ ID NO 25]
20% | SWICTGDNIDWNCRFA (disulfide 4-13 (inferred), cyclic, disulfide) [SEQ ID NO 28]
3% | EWRCRGDSSSWLCDYT (disulfide 4-13 (inferred), cyclic, disulfide) [SEQ ID NO 40]
1% | VWACRGGTTNWHCDL (disulfide 4-13 (inferred), cyclic, disulfide) [SEQ ID NO 41]
24% | SWHCFGDNENWMCNLR (disulfide 4-13 (inferred), cyclic, disulfide) [SEQ ID NO 27]
78% | DWTCSGDEYTWHCNYE (disulfide 4-13 (inferred), cyclic, disulfide) [SEQ ID NO 17]
83% | DWTCSGDEYYWHCNYE (disulfide 4-13 (inferred); not fully specified (C-terminus), cyclic, disulfide) [SEQ ID NO 16]
83% | DWTCYGDEYTWHCNYE (disulfide 4-13 (inferred); not fully specified (C-terminus), cyclic, disulfide) [SEQ ID NO 15]
13% | QWTCSGDE[dY]TWHCNYE (disulfide 4-13 (inferred); not fully specified (N-terminus); printed as QWTCSGDEyTWHCNYE, cyclic, disulfide) [SEQ ID NO 171]
11% | QWTCSG[dD]EYTWHCNYE (disulfide 4-13 (inferred); not fully specified (N-terminus); printed as QWTCSGdEYTWHCNYE, cyclic, disulfide) [SEQ ID NO 169]
9% | GQWTCSADEYTWHCNYE (disulfide 5-14 (inferred), cyclic, disulfide) [SEQ ID NO 142]
83% | DWTCRGDEYTWHCNYE (disulfide 4-13 (inferred), cyclic, disulfide) [SEQ ID NO 14]
70% | DWTCSGDEYRWHCNYE (disulfide 4-13 (inferred), cyclic, disulfide) [SEQ ID NO 19]
78% | DWTCSGDEYTWYCNYE (disulfide 4-13 (inferred), cyclic, disulfide) [SEQ ID NO 18]
